This is an account of results in patent US20210395394A1.

In assay [1] the target is Pan-species-specific antigen Plasmodium Lactate DeHydrogenase (Pan-PLDH) protein. Put plainly: indirect ELISA, recombinant MA protein coated 1 ug/ml, antibody 200 ng/ml. Background: An ELISA detects its analyte on a solid surface through an enzyme-linked reagent.
For assay [2] the target is unchanged. Put plainly: indirect ELISA, recombinant MA protein coated 1 ug/ml, antibody 0 ng/ml (blank).
Assay [3] has the same target. Put plainly: indirect ELISA, recombinant MA protein coated 1 ug/ml, antibody 8 ng/ml.
Assay [4] has the same target. Put plainly: indirect ELISA, recombinant MA protein coated 1 ug/ml, antibody 40 ng/ml.
For assay [5] the target is unchanged. Put plainly: indirect ELISA, recombinant MA protein coated 1 ug/ml, antibody 0.32 ng/ml.
The target is the same in assay [6]. Put plainly: indirect ELISA, recombinant MA protein coated 1 ug/ml, antibody 1000 ng/ml.
The target is the same in assay [7]. The experiment in a line: indirect ELISA, recombinant MA protein coated 1 ug/ml, antibody 1.6 ng/ml.
Assay [8] has the same target. Put plainly: indirect ELISA at four coating concentrations, KD calculated from half-maximal OD.

B1: Mutation 3 (antibody, mouse IgG2b, kappa, V domains shown)
VH: QVQLQQPGAELVRPGASVKLSCKASGSSFTNYWMNWVKQRPGQGLEWIGMINPSESETRINQKFKDKATLTVDKSSSTAYMQLSSLTAEDSAVYYCAKSGDFYTSYFDYWGQGTTLTVSS
VL: DIQLTQSPASLSASVGETVTITCRGSGNLHNYIAWYQQKQGKSPQLLVYNARTIADGVPSRFSGSGSGTQYSLKINSLQPEDFGSYYCQSFWSTYTFGGGTKLEIKR
For the molecule B1, the OD value at 450 nm (refer to 630 nm) in assay [1] was found to be 2.14 OD; in assay [2], 0.053 OD; in assay [3], 1.01 OD; in assay [4], 2.01 OD; in assay [5], 0.255 OD; in assay [6], 2.23 OD. Moreover, the OD value at 450 nm (refer to 630 nm) in assay [7] was 0.274 OD.

B2: WT 1-5 (antibody, mouse IgG2b, kappa, V domains shown)
VH: QVQLQQPGAELVRPGASVKLSCKASGYSFTNYFMNWVKQRPGQGLEWIGMINPSESETRVNQKFKDKATLTVDKSSSTAYMQLSSLTAEDSAVYYCAKSGEFYTTYWDYWGQGTTLTVSS
VL: DIQLTQSPASLSASVGETVTITCRGTGNIHNYIAWYQQKQGKSPQLLVYNARTLADGVPSRFSGSGSGTQYSLKINSLQPEDFGSYYCQSFWSSYTFGGGTKLEIKR
Consider B2, for which the Kd – broadly, a measure of binding affinity in units of concentration – in assay [8] is 0.516 nM.

B3: Mutation 2 (antibody, mouse IgG2b, kappa, V domains shown)
VH: QVQLQQPGAELVRPGASVKLSCKASGSSFTNYFMNWVKQRPGQGLEWIGMIHPSESETRINQKFKDKATLTVDKSSSTAYMQLSSLTAEDSAVYYCAKSGDFYTSYFDYWGQGTTLTVSS
VL: DIQLTQSPASLSASVGETVTITCRGSGNLHNYLAWYQQKQGKSPQLLVYNARTIADGVPSRFSGSGSGTQYSLKINSLQPEDFGSYYCQSFWSSYTFGGGTKLEIKR
On to B3, for which the OD value at 450 nm (refer to 630 nm) in assay [1] is 2.14 OD; in assay [2], 0.072 OD; in assay [3] it was 1 OD; in assay [4], 1.98 OD; in assay [5], 0.231 OD; in assay [6], 2.21 OD. The OD value at 450 nm (refer to 630 nm) in assay [7] stood at 0.297 OD.

B4: Mutation 1 (antibody, mouse IgG2b, kappa, V domains shown)
VH: QVQLQQPGAELVRPGASVKLSCKASGSSFTNYWMNWVKQRPGQGLEWIGMIHPSESETRINQKFKDKATLTVDKSSSTAYMQLSSLTAEDSAVYYCAKSGDFYTSYFDYWGQGTTLTVSS
VL: DIQLTQSPASLSASVGETVTITCRGSGNLHNYLAWYQQKQGKSPQLLVYNARTIADGVPSRFSGSGSGTQYSLKINSLQPEDFGSYYCQSFWSTYTFGGGTKLEIKR
In the case of B4, the OD value at 450 nm (refer to 630 nm) in assay [1] stood at 2.19 OD; in assay [2], 0.06 OD; in assay [3] it was 1.1 OD; in assay [4] it was 2.02 OD; in assay [5], 0.27 OD; in assay [6], 2.26 OD. The OD value at 450 nm (refer to 630 nm) in assay [7] was 0.339 OD. Further, the Kd in assay [8] is 0.412 nM.

B5: Mutation 4 (antibody, mouse IgG2b, kappa, V domains shown)
VH: QVQLQQPGAELVRPGASVKLSCKASGSSFTNYFMNWVKQRPGQGLEWIGMIHPSESETRINQKFKDKATLTVDKSSSTAYMQLSSLTAEDSAVYYCAKSGDFYTSYWDYWGQGTTLTVSS
VL: DIQLTQSPASLSASVGETVTITCRGSGNLHNYIAWYQQKQGKSPQLLVYNARTIADGVPSRFSGSGSGTQYSLKINSLQPEDFGSYYCQSFWSTYTFGGGTKLEIKR
Regarding B5, the OD value at 450 nm (refer to 630 nm) in assay [1] stood at 2.03 OD; in assay [2] it was 0.066 OD; in assay [3] it was 0.939 OD; in assay [4], 1.92 OD; in assay [5] it was 0.211 OD; in assay [6], 2.15 OD. For the same molecule, the OD value at 450 nm (refer to 630 nm) in assay [7] amounted to 0.251 OD.

B6: anti-Pan-PLDH 9G7 monoclonal antibody (antibody, mouse IgG2b, kappa, V domains shown)
VH: QVQLQQPGAELVRPGASVKLSCKASGSSFTNYFMNWVKQRPGQGLEWIGMINPSESETRINQKFKDKATLTVDKSSSTAYMQLSSLTAEDSAVYYCAKSGDFYTSYWDYWGQGTTLTVSS
VL: DIQLTQSPASLSASVGETVTITCRGSGNLHNYIAWYQQKQGKSPQLLVYNARTIADGVPSRFSGSGSGTQYSLKINSLQPEDFGSYYCQSFWSSYTFGGGTKLEIKR
Take B6: the OD value at 450 nm (refer to 630 nm) worked out at 1.82 OD in assay [1]; 0.072 OD in assay [2]; 0.635 OD in assay [3]; 1.43 OD in assay [4]; 0.173 OD in assay [5]; 1.94 OD in assay [6]. Besides, the OD value at 450 nm (refer to 630 nm) in assay [7] turned out to be 0.205 OD. Moreover, the Kd in assay [8] was 0.887 nM.
